Peptide exchange data for 53 substances are collected here from patent US20170037111A1, “Novel peptides and combination of peptides for use in immunotherapy against ovarian cancer and other cancers” (immatics biotechnologies GmbH, priority 2015, published 2017).

In the experiment the target is HLA-A*02:01 (Homo sapiens, UniProt P04439, D140Y/D185E/D98H/E176V/E277Q/G131W/G231S/I119V/I121R/I166T/I218V/L300P/L318F/N151K/N90K/P208A/P217A/Q86G/Q94H/R138H/R169H/T345S). The experiment is described as follows: MHC binding assay (UV-ligand exchange, β2m ELISA, peptide exchange yield). Particulars: MHC class I binding score; binding to HLA-A*02:01 ranged by peptide exchange yield (UV-ligand exchange, β2m ELISA). The source says: Candidate peptides for T cell based therapies according to the present invention were further tested for their MHC binding capacity (affinity). The individual peptide-MHC complexes were produced by UV-ligand exchange, where a UV-sensitive peptide is cleaved upon UV-irradiation, and exchanged with the peptide of interest as analyzed. Only peptide candidates that can effectively bind and stabilize the peptide-receptive MHC molecules prevent dissociation of the MHC complexes. To determine the yield of the exchange reaction, an ELISA was performed based on the detection of the light chain (β2m) of stabilized MHC complexes. The assay was performed as generally described in Rodenko et al. (Rodenko et al., 2006).
96 well MAXISorp plates (NUNC) were coated over night with 2 ug/ml streptavidin in PBS at room temperature, washed 4× and blocked for 1h at 37° C. in 2% BSA containing blocking buffer. […] Peptide-MHC monomers of the UV-exchange reaction were diluted 100 fold in blocking buffer. Samples were incubated for 1h at 37° C., washed four times, incubated with 2 ug/ml HRP conjugated anti-β2m for 1h at 37° C., washed again and detected with TMB solution that is stopped with […]. Absorption was measured at 450 nm. Candidate peptides that show a high exchange yield (preferably higher than 50%, most preferred higher than 75%) are generally preferred for a generation and production of antibodies or fragments thereof, and/or T cell receptors or fragments thereof, as they show sufficient avidity to the MHC molecules and prevent dissociation of the MHC complexes.
Background: In an ELISA, binding on a coated surface is turned into a signal by an enzyme label.

Consider “162 (YQQAQVPSV; listed as Homo sapiens) [compound 162]”, for which the Peptide exchange result is “″+++″ (≧50% = +++)”.
“163 (ALDEMGDLLQL; listed as Homo sapiens) [compound 163]”: the Peptide exchange entry is listed as “″+++″ (≧50% = +++)”.
“164 (ALLPQPKNLTV; listed as Homo sapiens) [compound 164]”: the Peptide exchange entry is listed as “″+++″ (≧50% = +++)”.
In the case of “165 (SLLDEIRAV; listed as Homo sapiens) [compound 165]”, the Peptide exchange result is reported as “″+++″ (≧50% = +++)”.
For the substance “167 (KVLEVTEEFGV; listed as Homo sapiens) [compound 167]”, the Peptide exchange entry is reported as “″+++″ (≧50% = +++)”.
Turning to “168 (KILDADIQL; listed as Homo sapiens) [compound 168]”, the Peptide exchange result is recorded as “″++++″ (≧75% = ++++)”.
On to “169 (NLPEYLPFV; listed as Homo sapiens) [compound 169]”, for which the Peptide exchange entry was “″+++″ (≧50% = +++)”.
With “170 (RLQETLSAA; listed as Homo sapiens) [compound 170]”, the Peptide exchange entry is on record as “″+++″ (≧50% = +++)”.
For the substance “171 (LLLPLQILL; listed as Homo sapiens) [compound 171]”, the Peptide exchange result is recorded as “″+++″ (≧50% = +++)”.
Turning to “172 (VLYSYTIITV; listed as Homo sapiens) [compound 172]”, the Peptide exchange entry was “″++″ (≧20% = ++)”.
In the case of “173 (LLDSASAGLYL; listed as Homo sapiens) [compound 173]” it was “″+++″ (≧50% = +++)”; in that of “174 (ALAQYLITA; listed as Homo sapiens) [compound 174]”, “″+++″ (≧50% = +++)”.
For the substance “175 (YLFENISQL; listed as Homo sapiens) [compound 175]”, the Peptide exchange entry is on record as “″+++″ (≧50% = +++)”.
In the case of “176 (YLMEGSYNKVFL; listed as Homo sapiens) [compound 176]” it was “″++″ (≧20% = ++)”.
As to “177 (YLLPEEYTSTL; listed as Homo sapiens) [compound 177]”, the Peptide exchange entry is recorded as “″++++″ (≧75% = ++++)”.
Take “178 (ALTEIAFVV; listed as Homo sapiens) [compound 178]”: the Peptide exchange result is “″++++″ (≧75% = ++++)”.
Turning to “179 (KVLNELYTV; listed as Homo sapiens) [compound 179]”, the Peptide exchange entry is recorded as “″+++″ (≧50% = +++)”.
As for “180 (FQIDPHSGLVTV; listed as Homo sapiens) [compound 180]”, the entry is “″++″ (≧20% = ++)”; as for “181 (LLWAGTAFQV; listed as Homo sapiens) [compound 181]”, “″+++″ (≧50% = +++)”.
Regarding “182 (MLLEAPGIFL; listed as Homo sapiens) [compound 182]”, the Peptide exchange result is recorded as “″+++″ (≧50% = +++)”.
As to “183 (FGLDLVTEL; listed as Homo sapiens) [compound 183]”, the Peptide exchange result was “″+++″ (≧50% = +++)”.
Take “184 (YLMDINGKMWL; listed as Homo sapiens) [compound 184]”: the Peptide exchange result is recorded as “″+++″ (≧50% = +++)”.
“185 (FLIDDKGYTL; listed as Homo sapiens) [compound 185]”: the Peptide exchange result is on record as “″++″ (≧20% = ++)”.
“186 (TLFFQQNAL; listed as Homo sapiens) [compound 186]”: the Peptide exchange entry is reported as “″++″ (≧20% = ++)”.
For “187 (RQISIRGIVGV; listed as Homo sapiens) [compound 187]”, the Peptide exchange result is “″+++″ (≧50% = +++)”.
Regarding “188 (GLFPVTPEAV; listed as Homo sapiens) [compound 188]”, the Peptide exchange result was “″+++″ (≧50% = +++)”.
As for “189 (ALQRKLPYV; listed as Homo sapiens) [compound 189]”, the entry is “″+++″ (≧50% = +++)”.
In the case of “190 (FLSSLTETI; listed as Homo sapiens) [compound 190]” it was “″+++″ (≧50% = +++)”; in that of “192 (KMLDGASFTL; listed as Homo sapiens) [compound 192]”, “″+++″ (≧50% = +++)”; in that of “193 (QLLDADGFLNV; listed as Homo sapiens) [compound 193]”, “″+++″ (≧50% = +++)”.
For “194 (ALPLFVITV; listed as Homo sapiens) [compound 194]”, the Peptide exchange entry is “″+++″ (≧50% = +++)”.
As to “195 (GLFADLLPRL; listed as Homo sapiens) [compound 195]”, the Peptide exchange result was “″+++″ (≧50% = +++)”.
Turning to “196 (YLYSVEIKL; listed as Homo sapiens) [compound 196]”, the Peptide exchange entry is given as “″++++″ (≧75% = ++++)”.
With “197 (ALGPEGGRV; listed as Homo sapiens) [compound 197]”, the Peptide exchange entry was “″++″ (≧20% = ++)”.
In the case of “200 (LLFGSVQEV; listed as Homo sapiens) [compound 200]” it was “″+++″ (≧50% = +++)”; in that of “201 (RLVDYLEGI; listed as Homo sapiens) [compound 201]”, “″+++″ (≧50% = +++)”; in that of “202 (ALLDQQGSRWTL; listed as Homo sapiens) [compound 202]”, “″+++″ (≧50% = +++)”.
“204 (KIAENVEEV; listed as Homo sapiens) [compound 204]”: the Peptide exchange result is “″++″ (≧20% = ++)”.
For the substance “205 (SLYPGTETMGL; listed as Homo sapiens) [compound 205]”, the Peptide exchange entry was “″+++″ (≧50% = +++)”.
Turning to “206 (VLQEGKLQKLAQL; listed as Homo sapiens) [compound 206]”, the Peptide exchange entry is recorded as “″+++″ (≧50% = +++)”.
As for “207 (GLTSTNAEV; listed as Homo sapiens) [compound 207]”, the entry is “″++″ (≧20% = ++)”.
Turning to “208 (KISPVTFSV; listed as Homo sapiens) [compound 208]”, the Peptide exchange result is reported as “″+++″ (≧50% = +++)”.
Turning to “209 (KLIESKHEV; listed as Homo sapiens) [compound 209]”, the Peptide exchange result was “″++″ (≧20% = ++)”.
As for “210 (LLLNAVLTV; listed as Homo sapiens) [compound 210]”, the entry is “″++″ (≧20% = ++)”; as for “211 (LLWPGAALL; listed as Homo sapiens) [compound 211]”, “″++″ (≧20% = ++)”; as for “212 (ALWDQDNLSV; listed as Homo sapiens) [compound 212]”, “″++″ (≧20% = ++)”.
Turning to “214 (FLLDLDPLLL; listed as Homo sapiens) [compound 214]”, the Peptide exchange entry is “″+++″ (≧50% = +++)”.
For the substance “216 (NLWEDPYYL; listed as Homo sapiens) [compound 216]”, the Peptide exchange entry was “″+++″ (≧50% = +++)”.
For “217 (ALIHPVSTV; listed as Homo sapiens) [compound 217]”, the Peptide exchange result was “″++″ (≧20% = ++)”.
Consider “218 (SALEELVNV; listed as Homo sapiens) [compound 218]”, for which the Peptide exchange result is on record as “″++″ (≧20% = ++)”.
In the case of “219 (KLSDIGITV; listed as Homo sapiens) [compound 219]” it was “″+++″ (≧50% = +++)”; in that of “220 (LLQKFVPEI; listed as Homo sapiens) [compound 220]”, “″++″ (≧20% = ++)”; in that of “221 (ALYEEGLLL; listed as Homo sapiens) [compound 221]”, “″++″ (≧20% = ++)”.
